Measurements from patent US20210301005A1 (Genentech, published 2021).
Read-outs that look alike come from different tables or passages of the source.

T1: human TGFβ2, mature receptor-binding domain (human, UniProt P09858 303-414 (pig entry), The mature TGFβ2 is a disulfide-linked homodimer of this 112-residue chain. The 4A11 epitope spans both monomers (p-1207).)
T1 construct: Peprotech; also called TGFb2
T1 sequence: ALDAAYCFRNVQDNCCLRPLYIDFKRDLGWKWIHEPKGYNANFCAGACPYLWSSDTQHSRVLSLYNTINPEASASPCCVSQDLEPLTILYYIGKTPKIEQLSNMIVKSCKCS

T2: human TGFβ3, mature dimeric form (human, UniProt P10600 301-412)
T2 construct: Peprotech, expressed in E. coli; also called TGFb3
T2 sequence: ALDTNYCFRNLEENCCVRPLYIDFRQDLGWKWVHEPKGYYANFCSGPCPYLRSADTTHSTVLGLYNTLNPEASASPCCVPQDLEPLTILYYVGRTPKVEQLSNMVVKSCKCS


Assays:
[1] = target: T1, human TGFβ2, mature receptor-binding …; assay: BIAcore T200
[2] = target: T2, human TGFβ3, mature dimeric form; assay: BIAcore T200
[3] = target: T1, human TGFβ2, mature receptor-binding …; assay: BIAcore T200; remark: listed apart in the source
Procedure: (§1) For binding affinity determinations of all humanized 2A10 antibodies, Surface Plasmon Resonance (SPR) measurement with a BIAcore™-T200 instrument was used. Briefly, series S CM5 biosensor chip with protein A was first applied to capture each humanized 2A10 variant to achieve approximately 100 response units (RU) on each flow cell, following by injection of 3-fold serial dilutions of human TGFβ1, TGFβ2 or TGFβ3 (0.02 nM to 5 nM) in HBS-EP buffer (0.01M HEPES pH 7.4, 0.15M NaCl, 3 mM EDTA and 0.05% v/v surfactant P20) at 25° C. with a flow rate of 50 μl/min for kinetics measurement. Association rates (ko.) and dissociation rates (koff) were calculated using a simple one-to-one Langmuir binding model (BIAcore T200 evaluation software version 2.0) to determine the equilibrium dissociation constant (KD), which was calculated as the ratio koff/kₒₙ.
(§2) Binding affinity determinations of all humanized 4A11 antibodies were performed using SPR measurement with a BIAcore™-T200 instrument, as described above in Example 6 ([…]).

[4] = target: T2, human TGFβ3, mature dimeric form; assay: BIAcore T200; remark: listed apart in the source
Procedure: as §1, §2

[5] = target: T1, human TGFβ2, mature receptor-binding …; assay: cell-based or functional assay
[6] = target: T2, human TGFβ3, mature dimeric form; assay: cell-based or functional assay
[7] = target: T3, human TGFβ1, mature receptor-binding domain (human, UniProt P01137 279-390); assay: cell-based or functional assay
[8] = target: T1, human TGFβ2, mature receptor-binding …; assay: cell-based or functional assay; remark: listed apart in the source
[9] = target: T2, human TGFβ3, mature dimeric form; assay: cell-based or functional assay; remark: listed apart in the source
[10] = target: T1, human TGFβ2, mature receptor-binding …; assay: BIAcore T200; remark: listed apart in the source
Procedure: as §1

[11] = target: T2, human TGFβ3, mature dimeric form; assay: BIAcore T200; remark: listed apart in the source
Procedure: as §1

[12] = target: T3, human TGFβ1, mature receptor-binding …; assay: cell-based or functional assay; remark: listed apart in the source
[13] = target: T1, human TGFβ2, mature receptor-binding …; assay: cell-based or functional assay; remark: listed apart in the source
[14] = target: T2, human TGFβ3, mature dimeric form; assay: cell-based or functional assay; remark: listed apart in the source
[15] = target: T1, human TGFβ2, mature receptor-binding …; assay: BIAcore T200; remark: listed apart in the source
Procedure: as §1

[16] = target: T2, human TGFβ3, mature dimeric form; assay: BIAcore T200; remark: listed apart in the source
Procedure: as §1

[17] = target: T3, human TGFβ1, mature receptor-binding …; assay: cell-based or functional assay; remark: listed apart in the source
[18] = target: T1, human TGFβ2, mature receptor-binding …; assay: cell-based or functional assay; remark: listed apart in the source
[19] = target: T2, human TGFβ3, mature dimeric form; assay: cell-based or functional assay; remark: listed apart in the source

T3 sequence (P01137 279-390 limits assumed): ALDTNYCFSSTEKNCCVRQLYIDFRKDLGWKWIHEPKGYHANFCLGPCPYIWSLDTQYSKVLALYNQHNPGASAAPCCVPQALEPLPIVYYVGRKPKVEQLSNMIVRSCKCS

Binder | fold drop in binding against h4A11.v7 [1] | Kd [3] | Kd [4] | HEKBlue TGFβ blocking IC50 [7] | HEKBlue TGFβ blocking IC50 [8] | HEKBlue TGFβ blocking IC50 [9] | Kd [10] | Kd [11] | HEKBlue TGFβ blocking IC50 [12] | HEKBlue TGFβ blocking IC50 [13] | HEKBlue TGFβ blocking IC50 [14] | also measured
h4A11.v7.11 (antibody, human IgG1, kappa, N297G, V domains shown) VH: EQQLQESGPGLVKPSETLSLTCTVTGFSLSSYTVNWVRQPAGKGLEWIGYISYGGSAYYASWANGRFTISVDSSKNQVSLKLSSVTAADTAVYFCARHMQVGGAPTGSMAAFDPWGPGTLVTVSS VL: EAVLTQSPGTLSLSPGERATLSCQSSQSVYNNNYLSWFQQKPGQPPRLLIYGASTLTSGVPDRFSGSGSGTDFTLTISRLEPEDFAVYYCAGGYSGSSDKYAFGGGTKVEIKR | 6 fold | 0.0401 nM | 21.4 pM | > 200 nM | > 200 nM | 3.53 nM | – | – | – | – | – | fold drop in binding against h4A11.v7 [2]: 2 fold; fold loss of blocking against h4A11.v7 [5]: > 2000 fold; fold loss of blocking against h4A11.v7 [6]: 118 fold
h4A11.v7.13 (antibody, human IgG1, kappa, N297G, V domains shown) VH: EQQLQESGPGLVKPSETLSLTCTVTGFSLSSYTVNWVRQPAGKGLEWIGYISYGGSAYYASWANGRFTISKDSSKNQFSLKLSSVTAADTAVYFCARHMQVGGAPTGSMAAFDPWGPGTLVTVSS VL: EAVLTQSPGTLSLSPGERATLSCQSSQSVYNNNYLSWFQQKPGQPPRLLIYGASTLTSGVPDRFSGSGSGTDFTLTISRLEPEDFAVYYCAGGYSGSSDKYAFGGGTKVEIKR | 2.5 fold | 0.0159 nM | 8.9 pM | > 200 nM | 0.03 nM | 0.05 nM | – | – | – | – | – | –
h4A11.v7.5 (antibody, V domains shown) VH: EQQLQESGPGLVKPSETLSLTCTVTGFSLSSYTVNWVRQPAGKGLEWIGYISYGGSAYYASWANGRFTISKDSSKNQVSLKLSSVTAADTAVYFCARHMQVGGAPTGSMAAFDPWGPGTLVTVSS VL: EAVLTQSPGTLSLSPGERATLSCQSSQSVYNNNYLSWYQQKPGQPPRLLIYGASTLTSGVPDRFSGSGSGTDFTLTISRLEPEDFAVYYCAGGYSGSSDKYAFGGGTKVEIK | ~2 fold | 0.0092 nM | 9.3 pM | > 200 nM | 0.16 nM | 0.04 nM | – | – | – | – | – | fold loss of blocking against h4A11.v7 [5]: ~2 fold
h2A10.v1 (antibody, human IgG1, kappa, N297G, V domains shown, also called humanized 2A10 version 1) VH: EVQLVESGGGLVQPGPSLRLSCTASGFDFNSYGMSWVRQAPGKGLELVADIVSKTYNYTTYYSDSVKDRFTISRDDSKSIVYLQMNSLKTEDTAVYYCTVAPGGSFDYWGQGTLVTVSS VL: DIQLTQSPSSLSASVGDRVTITCRASQSVSISRFNLMHWYQHKPGKQPKLLIYRASNLASGIPSRFSGSGSGTDFTLTISSLQPEDFATYYCQHSRESPWTFGGGTKVEIKR | – | – | – | – | – | – | – | – | – | – | – | binding result [1]: binds; binding result [2]: binds
h2A10.v2.N54Q (antibody, human IgG1, kappa, N297G, V domains shown) VH: EVQLLESGGGLVQPGGSLRLSCAASGFDFNSYGMSWVRQAPGKGLELVADIVSKTYQYTTYYSDSVKDRFTISRDDSKSTVYLQMNSLRAEDTAVYYCTVAPGGSFDYWGQGTLVTVSS VL: DIQLTQSPSSLSASVGDRVTITCRASQSVSISRFNLMHWYQHKPGKQPKLLIYRASNLASGIPSRFSGSGSGTDFTLTISSLQPEDFATYYCQHSRESPWTFGGGTKVEIKR | – | – | – | – | – | – | 0.378 nM | 2.5 pM | > 200 nM | > 200 nM | 0.01 nM | fold drop in TGFβ3 binding against h2A10.v2 [2]: < 2 fold
h2A10.v4 (antibody, human IgG1, kappa, N297G, V domains shown, human IgG1) VH: EVQLLESGGGLVQPGGSLRLSCAASGFDFNSYGMSWVRQAPGKGLELVSDIVSKTYNYATYYSDSVKDRFTISRDDSKNTLYLQMNSLRAEDTAVYYCTVAPGGSFDYWGQGTLVTVSS VL: DIQLTQSPSSLSASVGDRVTITCRASQSVSISRFNLMHWYQQKPGKAPKLLIYRASNLASGVPSRFSGSGSGTDFTLTISSLQPEDFATYYCQHSRESPWTFGGGTKVEIKR | – | – | – | – | – | – | – | – | – | – | – | Kd [15]: 0.3 nM; Kd [16]: 1.9 pM; HEKBlue TGFβ blocking IC50 [17]: > 200 nM; HEKBlue TGFβ blocking IC50 [18]: > 200 nM; HEKBlue TGFβ blocking IC50 [19]: 0.01 nM
h2A10.v2.N54S (antibody, human IgG1, kappa, N297G, V domains shown) VH: EVQLLESGGGLVQPGGSLRLSCAASGFDFNSYGMSWVRQAPGKGLELVADIVSKTYSYTTYYSDSVKDRFTISRDDSKSTVYLQMNSLRAEDTAVYYCTVAPGGSFDYWGQGTLVTVSS VL: DIQLTQSPSSLSASVGDRVTITCRASQSVSISRFNLMHWYQHKPGKQPKLLIYRASNLASGIPSRFSGSGSGTDFTLTISSLQPEDFATYYCQHSRESPWTFGGGTKVEIKR | – | – | – | – | – | – | 0.425 nM | 2.4 pM | > 200 nM | > 200 nM | 0.01 nM | fold drop in TGFβ3 binding against h2A10.v2 [2]: < 2 fold
h2A10.v3 (antibody, human IgG1, kappa, N297G, V domains shown, human IgG1) VH: EVQLLESGGGLVQPGGSLRLSCAASGFDFNSYGMSWVRQAPGKGLELVSDIVSKTYSYTTYYSDSVKDRFTISRDDSKNTLYLQMNSLRAEDTAVYYCTVAPGGSFDYWGQGTLVTVSS VL: DIQLTQSPSSLSASVGDRVTITCRASQSVSISRFNLMHWYQQKPGKAPKLLIYRASNLASGVPSRFSGSGSGTDFTLTISSLQPEDFATYYCQHSRESPWTFGGGTKVEIKR | – | – | – | – | – | – | – | – | – | – | – | Kd [15]: 0.482 nM; Kd [16]: 2.6 pM; HEKBlue TGFβ blocking IC50 [17]: > 200 nM; HEKBlue TGFβ blocking IC50 [18]: > 200 nM; HEKBlue TGFβ blocking IC50 [19]: 0.05 nM
h2A10.v2.T56A (antibody, human IgG1, kappa, N297G, V domains shown) VH: EVQLLESGGGLVQPGGSLRLSCAASGFDFNSYGMSWVRQAPGKGLELVADIVSKTYNYATYYSDSVKDRFTISRDDSKSTVYLQMNSLRAEDTAVYYCTVAPGGSFDYWGQGTLVTVSS VL: DIQLTQSPSSLSASVGDRVTITCRASQSVSISRFNLMHWYQHKPGKQPKLLIYRASNLASGIPSRFSGSGSGTDFTLTISSLQPEDFATYYCQHSRESPWTFGGGTKVEIKR | – | – | – | – | – | – | 0.247 nM | 1 pM | > 200 nM | > 200 nM | 0.01 nM | –
